From patent US5310665A, “Glucose isomerases having altered substrate specificity” (Gist-brocades, N.V., priority 1990, dated 1994)

Experiments:
[1] = system: T1, O=C[C@H](O)[C@@H](O)[C@H](O)CO; experiment: purified protein, by the assay type; assay type: biochemical, Actinoplanes missouriensis; details: other: xylose, 35° C., 10 mM Mg2+, pH 7.5
T1 construct: made in house; host or cells: E. coli K514
Method: Alternatively, the D-fructose produced during the isomerization reaction can be determined enzymatically using sorbitol dehydrogenase and NADH.
As a measure of specificity the quotient is Vmax /Km is sometimes used (Wells et al., ibid). […] These temperatures are chosen for practical reasons.
Activities were measured on purified enzyme. The coupled sorbitol dehydrogenase assay was used for xylose, the cysteine-carbazole or discontinuous sorbitol dehydrogenase method was used for glucose.

[2] = system: O=C[C@H](O)[C@@H](O)[C@H](O)CO; experiment: purified protein, by the assay type; details: pH 7.5

Chain of Actinoplanes missouriensis glucose isomerase, wild type, SEQ ID NO: 1 (Actinoplanes missouriensis 431) (chain, as listed by the source): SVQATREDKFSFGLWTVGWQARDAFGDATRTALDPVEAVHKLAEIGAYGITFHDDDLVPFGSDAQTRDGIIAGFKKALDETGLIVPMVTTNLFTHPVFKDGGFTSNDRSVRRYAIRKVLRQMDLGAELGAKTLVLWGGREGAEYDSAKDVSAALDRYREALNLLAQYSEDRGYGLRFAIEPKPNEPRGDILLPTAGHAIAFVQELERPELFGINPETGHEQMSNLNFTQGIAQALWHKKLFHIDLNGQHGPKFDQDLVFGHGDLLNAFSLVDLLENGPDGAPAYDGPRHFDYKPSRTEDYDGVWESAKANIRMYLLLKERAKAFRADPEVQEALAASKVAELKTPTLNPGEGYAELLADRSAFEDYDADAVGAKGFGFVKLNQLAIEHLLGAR
Chain of Actinoplanes missouriensis glucose isomerase variant T90S (Actinoplanes missouriensis 431; T90S) (chain, as listed by the source T90S T90S): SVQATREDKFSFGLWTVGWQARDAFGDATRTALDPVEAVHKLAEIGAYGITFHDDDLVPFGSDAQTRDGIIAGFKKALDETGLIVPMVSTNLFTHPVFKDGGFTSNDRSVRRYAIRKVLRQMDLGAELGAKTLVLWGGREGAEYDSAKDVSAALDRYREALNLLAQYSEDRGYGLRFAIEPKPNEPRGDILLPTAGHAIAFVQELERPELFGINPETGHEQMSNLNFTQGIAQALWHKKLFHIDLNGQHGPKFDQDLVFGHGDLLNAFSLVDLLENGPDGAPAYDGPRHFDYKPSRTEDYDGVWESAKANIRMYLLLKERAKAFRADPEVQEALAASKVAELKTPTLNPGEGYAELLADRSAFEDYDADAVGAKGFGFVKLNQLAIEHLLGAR
Chain of Actinoplanes missouriensis glucose isomerase variant A25K (Actinoplanes missouriensis 431; A25K) (chain, as listed by the source A25K A25K): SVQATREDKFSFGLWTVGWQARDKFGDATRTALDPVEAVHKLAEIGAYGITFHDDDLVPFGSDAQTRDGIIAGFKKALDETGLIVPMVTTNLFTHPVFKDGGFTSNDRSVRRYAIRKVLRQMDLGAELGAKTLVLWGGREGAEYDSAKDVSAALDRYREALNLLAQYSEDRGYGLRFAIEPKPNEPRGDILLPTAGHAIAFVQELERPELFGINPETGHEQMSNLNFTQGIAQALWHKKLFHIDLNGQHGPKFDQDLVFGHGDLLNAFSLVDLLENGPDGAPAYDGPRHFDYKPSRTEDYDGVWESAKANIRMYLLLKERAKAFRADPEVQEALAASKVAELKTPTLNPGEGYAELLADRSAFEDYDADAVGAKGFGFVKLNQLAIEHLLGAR
Chain of Actinoplanes missouriensis glucose isomerase variant H290N (Actinoplanes missouriensis 431; H290N) (chain, as listed by the source H290N H290N): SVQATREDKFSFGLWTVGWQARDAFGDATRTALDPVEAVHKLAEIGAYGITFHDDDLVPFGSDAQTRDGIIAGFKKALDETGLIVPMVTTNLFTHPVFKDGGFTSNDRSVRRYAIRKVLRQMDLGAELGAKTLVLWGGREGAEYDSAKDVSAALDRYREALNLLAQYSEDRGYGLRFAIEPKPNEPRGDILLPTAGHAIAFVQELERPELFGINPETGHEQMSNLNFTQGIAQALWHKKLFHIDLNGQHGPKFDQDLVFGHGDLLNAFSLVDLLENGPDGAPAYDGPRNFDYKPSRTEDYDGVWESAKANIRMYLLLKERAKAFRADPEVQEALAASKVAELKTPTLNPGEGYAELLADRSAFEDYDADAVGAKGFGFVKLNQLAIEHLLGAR
Chain of Actinoplanes missouriensis glucose isomerase variant M88S (Actinoplanes missouriensis 431; M88S) (chain, as listed by the source M88S M88S): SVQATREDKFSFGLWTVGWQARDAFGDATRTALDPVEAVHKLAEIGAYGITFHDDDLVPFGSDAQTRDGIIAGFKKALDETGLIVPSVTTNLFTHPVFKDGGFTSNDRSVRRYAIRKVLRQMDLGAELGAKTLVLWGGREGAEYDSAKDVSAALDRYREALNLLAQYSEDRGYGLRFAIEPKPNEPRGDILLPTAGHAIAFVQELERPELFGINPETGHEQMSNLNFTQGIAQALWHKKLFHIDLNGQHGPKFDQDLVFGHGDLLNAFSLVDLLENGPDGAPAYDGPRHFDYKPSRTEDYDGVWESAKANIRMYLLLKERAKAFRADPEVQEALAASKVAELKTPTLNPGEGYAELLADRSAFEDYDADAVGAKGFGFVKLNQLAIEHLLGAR
Chain of Actinoplanes missouriensis glucose isomerase variant V135Q (Actinoplanes missouriensis 431; V135Q) (chain, as listed by the source V135Q V135Q): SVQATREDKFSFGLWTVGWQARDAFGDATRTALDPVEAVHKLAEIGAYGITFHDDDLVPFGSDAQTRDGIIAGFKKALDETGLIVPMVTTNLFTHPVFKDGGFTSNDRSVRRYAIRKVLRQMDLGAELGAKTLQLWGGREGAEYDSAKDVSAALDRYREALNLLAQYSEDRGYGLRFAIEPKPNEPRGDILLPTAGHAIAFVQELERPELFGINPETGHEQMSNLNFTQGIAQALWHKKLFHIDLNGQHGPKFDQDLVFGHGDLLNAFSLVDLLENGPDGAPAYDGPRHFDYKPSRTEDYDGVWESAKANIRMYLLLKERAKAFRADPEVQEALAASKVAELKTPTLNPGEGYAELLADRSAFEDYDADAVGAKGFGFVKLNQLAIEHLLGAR
Chain of Actinoplanes missouriensis glucose isomerase variant M88SH290N (M88S/H290N) (Actinoplanes missouriensis 431; H290N/M88S) (chain, as listed by the source M88S H290N H290N M88S): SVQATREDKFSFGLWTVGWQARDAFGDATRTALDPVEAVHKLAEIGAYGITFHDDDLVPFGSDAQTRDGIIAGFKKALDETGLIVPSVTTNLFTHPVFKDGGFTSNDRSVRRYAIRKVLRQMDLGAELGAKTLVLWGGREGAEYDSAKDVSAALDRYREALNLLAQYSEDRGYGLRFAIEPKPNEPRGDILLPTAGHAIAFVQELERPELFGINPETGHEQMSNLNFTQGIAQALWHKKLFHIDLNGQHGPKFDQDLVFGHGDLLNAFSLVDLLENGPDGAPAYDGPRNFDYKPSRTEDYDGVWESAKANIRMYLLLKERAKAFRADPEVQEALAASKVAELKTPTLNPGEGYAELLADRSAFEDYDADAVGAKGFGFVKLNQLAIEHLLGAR
Chain of Actinoplanes missouriensis glucose isomerase variant M88SH243N (M88S/H243N) (Actinoplanes missouriensis 431; H243N/M88S) (chain, as listed by the source M88S H243N H243N M88S): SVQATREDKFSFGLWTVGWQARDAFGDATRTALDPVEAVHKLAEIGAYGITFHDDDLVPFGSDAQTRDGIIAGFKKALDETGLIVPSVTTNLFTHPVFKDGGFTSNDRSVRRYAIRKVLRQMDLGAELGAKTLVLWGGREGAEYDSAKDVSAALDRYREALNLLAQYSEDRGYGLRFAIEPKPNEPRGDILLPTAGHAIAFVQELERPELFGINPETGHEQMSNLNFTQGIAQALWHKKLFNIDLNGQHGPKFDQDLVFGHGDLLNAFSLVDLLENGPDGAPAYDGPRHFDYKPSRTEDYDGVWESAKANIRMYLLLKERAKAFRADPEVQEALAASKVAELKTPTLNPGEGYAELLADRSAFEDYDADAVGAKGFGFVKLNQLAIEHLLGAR

Actinoplanes missouriensis glucose isomerase variant A25K (Actinoplanes missouriensis 431; A25K)
Km [1]: 2.73 mM

Actinoplanes missouriensis glucose isomerase variant H290N (Actinoplanes missouriensis 431; H290N)
Km [1]: 9.7 mM

Actinoplanes missouriensis glucose isomerase variant M88S (Actinoplanes missouriensis 431; M88S)
Km [1]: 7.6 mM

Actinoplanes missouriensis glucose isomerase variant M88SH243N (M88S/H243N) (Actinoplanes missouriensis 431; H243N/M88S)
Km [1]: 11.9 mM

Actinoplanes missouriensis glucose isomerase variant M88SH290N (M88S/H290N) (Actinoplanes missouriensis 431; H290N/M88S)
Km [1]: 14.8 mM

Actinoplanes missouriensis glucose isomerase variant T90S (Actinoplanes missouriensis 431; T90S)
Km [1]: 16.8 mM

Actinoplanes missouriensis glucose isomerase variant V135Q (Actinoplanes missouriensis 431; V135Q)
Km [1]: 56 mM

Actinoplanes missouriensis glucose isomerase, wild type, SEQ ID NO: 1 (Actinoplanes missouriensis 431)
Km ([2]; other: 35° C., 1 mM Mn): 13.2 mM | Vmax ([2]; other: 35° C., 1 mM Mn): 8.6 µmol/min/mg | Km ([2]; other: xylose, 35° C., 10 mM Mg2+): 4.8 mM
